Measured values taken from patent US9388406B2, “System useful for reporting protein-protein interactions in the bacterial periplasm” (Cornell University, priority 2008, dated 2016).

Legend:
Jun [1] = target: T1, Jun (Homo sapiens, UniProt P05412); test: split β-lactamase protein complementation assay in the periplasm, spot plating on ampicillin, Fos/Jun leucine zippers; assay type: cell-based; details: Fos on ω fragment, Jun on α fragment of Bla; negative control GCN4
Experimental: (§1) E. coli MC4100 cells were co-transformed with plasmids pDMB-P1-ωBLA (CmR) and aGS-P2 (KanR), where P1 and P2 represent proteins of interest. Cells were grown overnight at 37° C. in LB medium containing 20 μg/mL chloramphenicol (Cm) and 50 μg/mL kanamycin (Kan). Screening of cells on LB agar was performed by first normalizing overnight cultures by OD600 and then spotting 5 μL, of serially diluted (10-10^6-fold) cells on LB agar plates with […] of ampicillin (Amp). In all cases, the plates were incubated 16 h at 37° C. and then imaged using a ChemiDoc System (BioRad). […] The minimum bacteriocidal concentration was determined as the minimum Amp concentration at which no colonies appeared on the plates.
(§2) It was hypothesized that detecting protein interactions in the periplasm can be used to engineer antibody fragments with in vivo activity in the periplasm. […] The approach used in the present invention was to fuse known interacting protein domains to genes encoding two split β-lactamase fragments using a two-plasmid system (Wehrman, T., et al., “Protein-protein Interactions Monitored in Mammalian Cells Via Complementation of Beta-lactamase Enzyme Fragments,” Proc Natl Acad Sci USA 99:3469-3474 (2002), which is hereby incorporated by reference in its entirety)(see FIG. 2A). […]

Jun [2] = target: T1, Jun; details: Fos/Jun leucine zippers; Pernelle et al. 1993; cited from earlier work
scFv-GCN4 = test: split β-lactamase protein complementation assay in the periplasm, MBC on ampicillin, scFv-GCN4 with antigen; assay type: cell-based; details: E. coli MC4100; antigen on α Bla fragment paired with scFv-GCN4; versus α-Jun negative control
Experimental: as §1, §2

T1 sequence (P05412 280-308 limits assumed, species assumed): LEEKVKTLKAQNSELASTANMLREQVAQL

B1: Fos: Fos leucine zipper, fused to the ω fragment of β-lactamase; interacts with Jun (protein)
chain: LQAETDQLEDEKSALQTEIANLLKEKEKLGGGGSGGGGSGGGGSNGRTLASRQQLIDWMEADKVAGPLLRSALPAGWFIADKSGAGERGSRGIIAALGPDGKPSRIVVIYTTGSQATMDERNRQIAEIGASLIKHW
Jun [1]
  ampicillin activity in the PCA: well above that of the negative control
Jun [2]
  KD of their interaction: nanomolar range

B2: GCN4-PP: double proline mutant of the GCN4 leucine zipper with reduced homodimerization, antigen of scFv-GCN4 (protein)
chain: HPETLVKVKDAEDQLGARVGYIELDLNSGKILESFRPEERFPMMSTFKVLLCGAVLSRVDAGQEQLGRRIHYSQNDLVEYSPVTEKHLTDGMTVRELCSAAITMSDNTAANLLLTTIGGPKELTAFLHNMGDHVTRLDRWEPELNEAIPNDERDTTMPAAMATTLRKLLTGELLEPKVEELLPKNYHLENEVARL
modifications: left off: small tags and cut ends
scFv-GCN4
  higher MBC (minimum bacteriocidal concentration) on ampicillin: 16 fold
